The source of these data is article PMC6746316.

For this experiment, the target named is Xenopus tropicalis ALDH16B1 (Xenopus tropicalis). The experiment can be described thus: SEC.

On to Xenopus tropicalis ALDH16B1 (enzyme), for which the stoichiometry N was determined as 2.
